# Data taken from paper PMC9675739, “Structural and functional asymmetry of RING trimerization controls priming and extension events in TRIM5α autoubiquitylation” (Nature Communications, 2022).
# B1: R1-WT, isolated RING domain of rhesus TRIM5α (domain or fragment, rhesus monkey, UniProt Q0PF16 2-90, looked up)
# chain: ASGILLNVKEEVTCPICLELLTEPLSLHCGHSFCQACITANHKKSMLYKEGERSCPVCRISYQPENIQPNRHVANIVEKLREVKLSPEE
# notes: TRIM5α RING domain, rhesus monkey, residues 2-90 (methods); the results give residues 2-89; Tags removed by TEV protease; 15N-labelled for NMR; also called RING monomer; isolated RING monomer; source: bacteria, purified (Ni-NTA, Superdex 75); not shown: His6, N-terminal, cleaved; GB1, N-terminal, cleaved
# Molecular target: the molecule itself
# Assay: AUC; sedimentation equilibrium at different protein concentrations and rotor speeds, 20 °C, global fit to a monomer-dimer self-association model; dimer to monomers
protein,measurement,value
B1,Kd,63 ± 28 µM
